Data taken from paper PMC12041577 (Nature Communications, 2025).

Biological target: the molecule itself
Assay: GraFix

Protein	stoichiometry N	binding result
ad2-100K fused with a C terminal 2 × Strep tag (natural protein, human adenovirus type 2 (ad2), UniProt P24932 1-805, looked up, intermolecular disulfide bonds C515-C516' and C516-C515' between the two protomers) MESVEKEDSLTAPFEFATTASTDAANAPTTFPVEAPPLEEEEVIIEQDPGFVSEDDEDRSVPTEDKKQDQDDAEANEEQVGRGDQRHGDYLDVGDDVLLKHLQRQCAIICDALQERSDVPLAIADVSLAYERHLFSPRVPPKRQENGTCEPNPRLNFYPVFAVPEVLATYHIFFQNCKIPLSCRANRSRADKQLALRQGAVIPDIASLDEVPKIFEGLGRDEKRAANALQQENSENESHCGVLVELEGDNARLAVLKRSIEVTHFAYPALNLPPKVMSTVMSELIVRRARPLERDANLQEQTEEGLPAVGDEQLARWLETREPADLEERRKLMMAAVLVTVELECMQRFFADPEMQRKLEETLHYTFRQGYVRQACKISNVELCNLVSYLGILHENRLGQNVLHSTLKGEARRDYVRDCVYLFLCYTWQTAMGVWQQCLEERNLKELQKLLKQNLKDLWTAFNERSVAAHLADIIFPERLLKTLQQGLPDFTSQSMLQNFRNFILERSGILPATCCALPSDFVPIKYRECPPPLWGHCYLLQLANYLAYHSDIMEDVSGDGLLECHCRCNLCTPHRSLVCNSQLLSESQIIGTFELQGPSPDEKSAAPGLKLTPGLWTSAYLRKFVPEDYHAHEIRFYEDQSRPPNAELTACVITQGHILGQLQAINKARQEFLLRKGRGVYLDPQSGEELNPIPPPPQPYQQPRALASQDGTQKEAAAAAAATHGRGGILGQSGRGGFGRGGGDDGRLGQPRRSFRGRRGVRRNTVTLGRIPLAGAPEIGNRSQHRYNLRSSGAAGTACSPTQP	2	–
ad2-100K mutant C515S-C516S-strepII (natural protein, human adenovirus type 2 (ad2), UniProt P24932 1-805, looked up) MESVEKEDSLTAPFEFATTASTDAANAPTTFPVEAPPLEEEEVIIEQDPGFVSEDDEDRSVPTEDKKQDQDDAEANEEQVGRGDQRHGDYLDVGDDVLLKHLQRQCAIICDALQERSDVPLAIADVSLAYERHLFSPRVPPKRQENGTCEPNPRLNFYPVFAVPEVLATYHIFFQNCKIPLSCRANRSRADKQLALRQGAVIPDIASLDEVPKIFEGLGRDEKRAANALQQENSENESHCGVLVELEGDNARLAVLKRSIEVTHFAYPALNLPPKVMSTVMSELIVRRARPLERDANLQEQTEEGLPAVGDEQLARWLETREPADLEERRKLMMAAVLVTVELECMQRFFADPEMQRKLEETLHYTFRQGYVRQACKISNVELCNLVSYLGILHENRLGQNVLHSTLKGEARRDYVRDCVYLFLCYTWQTAMGVWQQCLEERNLKELQKLLKQNLKDLWTAFNERSVAAHLADIIFPERLLKTLQQGLPDFTSQSMLQNFRNFILERSGILPATSSALPSDFVPIKYRECPPPLWGHCYLLQLANYLAYHSDIMEDVSGDGLLECHCRCNLCTPHRSLVCNSQLLSESQIIGTFELQGPSPDEKSAAPGLKLTPGLWTSAYLRKFVPEDYHAHEIRFYEDQSRPPNAELTACVITQGHILGQLQAINKARQEFLLRKGRGVYLDPQSGEELNPIPPPPQPYQQPRALASQDGTQKEAAAAAAATHGRGGILGQSGRGGFGRGGGDDGRLGQPRRSFRGRRGVRRNTVTLGRIPLAGAPEIGNRSQHRYNLRSSGAAGTACSPTQP	–	binds
ad2-100K truncation mutant Δ693–805 with a C terminal 2 × Strep tag (domain or fragment, human adenovirus type 2 (ad2), UniProt P24932 1-692, looked up) MESVEKEDSLTAPFEFATTASTDAANAPTTFPVEAPPLEEEEVIIEQDPGFVSEDDEDRSVPTEDKKQDQDDAEANEEQVGRGDQRHGDYLDVGDDVLLKHLQRQCAIICDALQERSDVPLAIADVSLAYERHLFSPRVPPKRQENGTCEPNPRLNFYPVFAVPEVLATYHIFFQNCKIPLSCRANRSRADKQLALRQGAVIPDIASLDEVPKIFEGLGRDEKRAANALQQENSENESHCGVLVELEGDNARLAVLKRSIEVTHFAYPALNLPPKVMSTVMSELIVRRARPLERDANLQEQTEEGLPAVGDEQLARWLETREPADLEERRKLMMAAVLVTVELECMQRFFADPEMQRKLEETLHYTFRQGYVRQACKISNVELCNLVSYLGILHENRLGQNVLHSTLKGEARRDYVRDCVYLFLCYTWQTAMGVWQQCLEERNLKELQKLLKQNLKDLWTAFNERSVAAHLADIIFPERLLKTLQQGLPDFTSQSMLQNFRNFILERSGILPATCCALPSDFVPIKYRECPPPLWGHCYLLQLANYLAYHSDIMEDVSGDGLLECHCRCNLCTPHRSLVCNSQLLSESQIIGTFELQGPSPDEKSAAPGLKLTPGLWTSAYLRKFVPEDYHAHEIRFYEDQSRPPNAELTACVITQGHILGQLQAINKARQEFLLRKGRGVYLDPQSGEELN	–	binds
ad2-100K truncation mutant Δ680–805 with a C terminal 2 × Strep tag (domain or fragment, human adenovirus type 2 (ad2), UniProt P24932 1-679, looked up) MESVEKEDSLTAPFEFATTASTDAANAPTTFPVEAPPLEEEEVIIEQDPGFVSEDDEDRSVPTEDKKQDQDDAEANEEQVGRGDQRHGDYLDVGDDVLLKHLQRQCAIICDALQERSDVPLAIADVSLAYERHLFSPRVPPKRQENGTCEPNPRLNFYPVFAVPEVLATYHIFFQNCKIPLSCRANRSRADKQLALRQGAVIPDIASLDEVPKIFEGLGRDEKRAANALQQENSENESHCGVLVELEGDNARLAVLKRSIEVTHFAYPALNLPPKVMSTVMSELIVRRARPLERDANLQEQTEEGLPAVGDEQLARWLETREPADLEERRKLMMAAVLVTVELECMQRFFADPEMQRKLEETLHYTFRQGYVRQACKISNVELCNLVSYLGILHENRLGQNVLHSTLKGEARRDYVRDCVYLFLCYTWQTAMGVWQQCLEERNLKELQKLLKQNLKDLWTAFNERSVAAHLADIIFPERLLKTLQQGLPDFTSQSMLQNFRNFILERSGILPATCCALPSDFVPIKYRECPPPLWGHCYLLQLANYLAYHSDIMEDVSGDGLLECHCRCNLCTPHRSLVCNSQLLSESQIIGTFELQGPSPDEKSAAPGLKLTPGLWTSAYLRKFVPEDYHAHEIRFYEDQSRPPNAELTACVITQGHILGQLQAINKARQEFLLRKGR	–	binds
